This note sets out measurements from publication PMC2114473.

What all share (assay): radioligand binding
Experiment [1] addresses type II collagen, pepsinized.
The target in experiment [2] is type I collagen, pepsinized.
The target of experiment [3] is type III collagen, pepsinized.

Turning to “human thrombospondin (TSP) (from UniProt P07996 19-1170) (natural protein)”, the cpm bound in experiment [1] is 5320 cpm; in experiment [2], 5320 cpm; in experiment [3] it was 4940 cpm.
